Here are results for one molecule from patent US20030109416A1 (MOCHIDA PHARMACEUTICAL, published 2003).

The assay addresses T1, extracellular domain of the human Fas ligand (produced in Pichia pastoris GS115) (human, UniProt P48023 103-281).
T1 construct: extracellular domain; also called human Fas ligand extracellular domain
T1 sequence (looked up): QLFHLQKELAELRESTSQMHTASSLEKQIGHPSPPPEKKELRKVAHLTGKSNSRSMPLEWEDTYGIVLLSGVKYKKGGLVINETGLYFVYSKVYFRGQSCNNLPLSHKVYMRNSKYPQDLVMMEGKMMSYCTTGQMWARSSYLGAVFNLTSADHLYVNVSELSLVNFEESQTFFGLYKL
Briefly: affinity chromatography on immobilized hFas-Fc.

B1: hFas-Fc (chimeric protein of the extracellular domain of the human Fas antigen and Fc region of human IgG1) (Fc fusion, UniProt P25445 26-173, looked up)
chain: QVTDINSKGLELRKTVTTVETQNLEGLHHDGQFCHKPCPPGERKARDCTVNGDEPDCVPCQEGKEYTDKAHFSSKCRRCRLCDEGHGLEVEINCTRTQNTKCRCKPNFFCNSTVCEHCDPCTKCEHGIIKECTLTSNTKCKEEGSRSN
notes: extracellular domain; The construct limits are only in WO 95/13293; also called human Fas-Fc; product of plasmid pBF-Fc1; not shown: Fc region of human IgG1
As to B1, the binding result is “binds”.
